Assay results published in publication PMC7054364.

Biological target: FITC-labelled type I collagen (UniProt P02453)
Chain of UniProt P02453 (P02453 23-1217, chain 1 of 2): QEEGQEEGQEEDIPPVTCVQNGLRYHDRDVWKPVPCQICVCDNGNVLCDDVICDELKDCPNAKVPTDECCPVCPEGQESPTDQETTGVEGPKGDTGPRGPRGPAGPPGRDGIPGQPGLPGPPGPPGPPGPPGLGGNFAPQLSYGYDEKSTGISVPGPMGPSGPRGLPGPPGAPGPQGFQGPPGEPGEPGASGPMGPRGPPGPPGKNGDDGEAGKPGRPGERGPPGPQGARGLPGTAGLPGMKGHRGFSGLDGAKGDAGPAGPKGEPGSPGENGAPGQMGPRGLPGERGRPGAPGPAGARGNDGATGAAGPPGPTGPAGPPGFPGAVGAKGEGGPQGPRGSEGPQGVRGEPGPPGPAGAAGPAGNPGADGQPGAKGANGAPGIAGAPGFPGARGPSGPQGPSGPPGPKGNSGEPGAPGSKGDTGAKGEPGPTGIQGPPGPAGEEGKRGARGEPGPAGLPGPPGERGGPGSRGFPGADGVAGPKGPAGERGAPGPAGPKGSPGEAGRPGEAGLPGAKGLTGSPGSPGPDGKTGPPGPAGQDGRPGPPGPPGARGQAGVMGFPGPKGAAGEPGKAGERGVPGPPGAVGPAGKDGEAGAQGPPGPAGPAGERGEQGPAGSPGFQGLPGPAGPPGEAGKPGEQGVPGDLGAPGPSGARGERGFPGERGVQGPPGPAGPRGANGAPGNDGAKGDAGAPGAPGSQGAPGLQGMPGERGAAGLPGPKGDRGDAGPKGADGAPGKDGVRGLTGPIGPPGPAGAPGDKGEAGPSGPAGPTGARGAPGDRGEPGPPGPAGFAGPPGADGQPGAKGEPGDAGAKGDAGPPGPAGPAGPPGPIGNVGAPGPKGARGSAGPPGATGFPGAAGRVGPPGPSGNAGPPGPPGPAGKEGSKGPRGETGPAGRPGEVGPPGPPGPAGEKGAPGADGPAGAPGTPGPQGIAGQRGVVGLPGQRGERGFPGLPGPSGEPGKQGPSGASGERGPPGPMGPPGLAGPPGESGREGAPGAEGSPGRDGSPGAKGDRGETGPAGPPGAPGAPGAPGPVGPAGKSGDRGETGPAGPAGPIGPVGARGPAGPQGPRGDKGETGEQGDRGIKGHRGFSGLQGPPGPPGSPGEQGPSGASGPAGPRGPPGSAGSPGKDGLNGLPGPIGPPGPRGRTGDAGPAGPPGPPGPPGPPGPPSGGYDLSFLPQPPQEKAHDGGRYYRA
Chain of UniProt P02453 (P02465 80-1117, chain 2 of 2, further chain): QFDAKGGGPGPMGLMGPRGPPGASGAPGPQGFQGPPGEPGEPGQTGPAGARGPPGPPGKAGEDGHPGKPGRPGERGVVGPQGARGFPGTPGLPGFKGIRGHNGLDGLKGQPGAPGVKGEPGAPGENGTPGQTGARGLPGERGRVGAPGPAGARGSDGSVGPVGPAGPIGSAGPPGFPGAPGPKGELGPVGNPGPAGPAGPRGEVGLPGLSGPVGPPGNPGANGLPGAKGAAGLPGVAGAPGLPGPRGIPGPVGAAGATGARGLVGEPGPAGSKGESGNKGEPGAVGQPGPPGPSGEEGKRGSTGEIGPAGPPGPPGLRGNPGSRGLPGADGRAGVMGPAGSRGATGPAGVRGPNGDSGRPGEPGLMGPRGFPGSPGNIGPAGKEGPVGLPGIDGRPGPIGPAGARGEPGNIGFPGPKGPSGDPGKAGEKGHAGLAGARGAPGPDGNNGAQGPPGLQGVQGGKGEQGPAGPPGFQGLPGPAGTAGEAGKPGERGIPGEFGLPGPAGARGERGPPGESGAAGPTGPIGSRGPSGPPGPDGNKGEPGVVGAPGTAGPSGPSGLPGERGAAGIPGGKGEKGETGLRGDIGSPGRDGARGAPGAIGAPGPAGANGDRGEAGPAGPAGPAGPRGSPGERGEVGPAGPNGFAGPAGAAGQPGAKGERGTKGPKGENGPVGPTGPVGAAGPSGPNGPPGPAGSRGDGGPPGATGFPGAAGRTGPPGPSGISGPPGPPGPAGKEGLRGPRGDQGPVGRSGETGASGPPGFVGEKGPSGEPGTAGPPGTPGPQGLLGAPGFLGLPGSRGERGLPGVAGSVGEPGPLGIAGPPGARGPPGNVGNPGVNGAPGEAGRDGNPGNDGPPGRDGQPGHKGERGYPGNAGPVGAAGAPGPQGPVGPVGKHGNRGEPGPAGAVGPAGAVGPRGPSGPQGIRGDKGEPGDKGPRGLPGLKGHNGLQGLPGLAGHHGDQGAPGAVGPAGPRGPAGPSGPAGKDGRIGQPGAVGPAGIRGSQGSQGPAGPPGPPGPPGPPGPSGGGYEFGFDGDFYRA

Substance | Km of hydrolysis of FITC-labelled type I collagen (Lineweaver-Burk plot; 50 mM Tris-HCl, 0.2 M NaCl, 5 mM CaCl2, pH 7.5, 30 °C) [mM]
recombinant 62-kDa collagenase from Grimontia hollisae (enzyme) | 0.00109
purified collagenase product from C. histolyticum | 0.00189
